In the DeepSol protein solubility set:

Assay: soluble on expression in E. coli; label from the status in PepcDB or PDB records

Sequence	soluble on expression in E. coli
MSGAEQQQIVPANNGDENWKAGLNLPAKDRRFKTADVTDTKGVEFEDFCLGRDLLMGIFEKGWEKPSPIQEASIGVALTGQDILARAKNGTGKTGAYCIPVIEKIQPALKAIQAMVIVPTRELALQTSQICVELSKHIQLKVMVTTGGTDLRDDIMRLNGTVHLVIATPGRILDLMEKGVAKMEHCKTLVLDEADKLLSQDFQGILDRLINFLPKERQVMLYSATFPNTVTSFMQKHMHKPYEINLMEELTLLGVTQYYAFVQEKQKVHCLNTLFRKLQINQSIIFCNSTQRVELLAKKITEIGYSCYYIHSKMAQNHRNRVFHDFRQGNCRNLVCSDLLTRGIDIQAVNVVINFDFPRNAETYLHRIGRSGRFGHLGVAINLITYEDRHTLRRIEQELRTRIEPIPKTVDPKLYVADQQLVDAADETTA	not soluble
MDSSNYFYGGNNICIINTKWGKHSGIGGYAEIIDTLVGNFTNISSWAKIGIRDHIHTNFLICDFVYKDNDHIMPPGISSFEDYWVKIGNDVWVGTNVTILRGVEVGDGAVIAAGSVVTKSIPPYAIVGGNPAKFIKWRFPFEVREKLLEIKLEHHHHHH	not soluble
AVKLQESGPGILKPSQTLSLTCSFSGFSLTTYGMGVGWIRQSSGKGLEWLAHIWWDDDKYYNPSLKSRLTISKDTSRNQVFLKITSVATADTATYYCARRAPFYGNHAMDYWGQGTTVTVSSAKTTPPSVYPLAPGSAAQTNSMVTLGCLVKGYFPEPVTVTWNSGSLSSGVHTFPAVLQSDLYTLSSSVTVPSSPRPSETVTCNVAHPASSTKVDKKI	soluble
ANIQSFSFKNFNSPSFILQGDATVSSGKLQLTKVKENGIPTPSSLGRAFYSSPIQIYDKSTGAVASWATSFTVKISAPSKASFADGIAFALVPVGSEPRRNGGYLGVFDSDVYNNSAQTVAVEFDTLSNSGWDPSMKHIGIDVNSIKSIATVSWDLANGENAEILITYNAATSLLVASLVHPSRRTSYILSERVDITNELPEYVSVGFSATTGLSEGYIETHDVLSWSFASKLPDDSTAEPLDLASYLVRNVL	soluble
MFKLFTARQHDKIWDFDGGIHPPEMKLQSSTVPMRIAPLPDQLIIPLQQHLGPEGELRVRAGEQVLKGQPLTVGRGRTVPVHAPTSGMITAIAPHTTAHPSGLAELCVHITPDGEDRWREQQPWADYRQRDKMALLDRIHQAGIAGLGGAGFPTASKLQGGLNGIITLIINAAECEPYITADDRLMQEHADEVITGIHILRHLLQPQQVLIGIEDNKPEAIAALQRALRGQDDIHLRVVPTKYPSGGAKQLTKILTGKEVPFGKHSSSIGVLMQNVGTVVAIKRAVIDDEPLIERVVTLTGDALSSPGNFWARIGTPVLYLLKLAGFKPQNPPMVIMGGPLMGFTLPSLDVPIVKISNCILAPAETEMGLSEPEQSCIRCGLCVDACPAGLLPQQLYWFSRGEEHEKARNHNLFDCIECGACAYVCPSNIPLVQYYRQEKAEIRALDQESARAAEAKARFEAKQARLAREKLARELRHKQAAVKLTDADQQTVDAAVSRLTRQSDGSESVINIPAGQMPDNSAVIAAREARKAQARARQAEKQQARSTEETTDVVDPRQAAVAAAIARVKAKKAVQAQHVTTDVAEAGSEAMAEDPRKAAVAAAIARVKAKKAAQAINPD	not soluble
MSDRGRTLMVQGTTSDAGKSTLVTALCRWLARRGVAVVPFKPQNMALNSAVTADGGEIGRAQAVQAQACRLAPHTDMNPVLLKPNTDIGAQVIIHGRAVTSMDAAAYHDYKRVAMEAVLASHGRLAAAYRVVMVEGAGSPAEINLRANDIANMGFAEAVDCPVILVADIDRGGVFAHLVGTLELLSDSERERVKGFVINRFRGDIALLQPGLDWLEARTGKPVLGVLPYVSDLHLEAEDAIDTRQAAKVGPRLKVVVPVLPRISNHTDFDPLRLHPQVELSFVGPGQALPSADLIVLPGSKSVRADLAALRERGWDEAILRHLRYGGRLLGICGGLQMLGERLHDPLGLEGAAGSSAGLGLLALETTLEADKQLRNVQGRLSLEDAPLSGYEIHAGVTRGEALARPAVVLDDGRADGARSVDGNVMGTYLHGLFESTAACSALLRWAGLREVQAVDYQALRERDIERLADLVERHLDTGRLLALCGEPH	not soluble
MGHHHHHHSHMGARMTRAFRNFNVEKRAEQEISKRKPSMAPKHPSTRSLLQEHLSQYPEIEEEVSRKDNKLLSLLRDVYVNSKDPVPSLPVKAIEPQQQPKEFRLPIGDQFDKNIKDIPKGKITVVEALTLLNNHKLSPETWTAEKIAQEYHLELEDVNSLLKYFVTFEVKIVPPEDRKAIQSK	not soluble
MGSDKIHHHHHHMRRTALHSSTVGIRMRRALLRGLALSLTLGGAALGQSVGDSIFPSLGQRGLDVQHYDLHLTVPRPGEPHLSGDVTLTVGAREPLSRIVLDLLGPRVSAAQWNGQRVRWVQTAQKVEVTLPRPLRPGETGRLRLIYAGTPELSGDPGLPIRPGWQNEAGLSYSLSEPHGTRGFLPCNDHPSDPATFTVRVTVPASASAAASGLFTTQTERNGLKTLTFTQRVPVPTYALGLIVGPLERRTAPDVQLGTQTVHRRDIYAAGLPAGTTVPEGETARMLRVLSDWFGPYPDEVYGVALLPVRQLALETAGLTTMPATSNRERVRLHELAHQWFGDQVTLADWADTWLSEGFATYAELLWAESQGEDGQAMAADWYARLSVLPSRPLRATREEEIFDASAYFRGALALHALRLKVGDAAFGQFLHSYVKTFTGRPVSTTALLTLVKTQLGAEAEQTLRVWVEGRTLPPLPEPVGAPV	not soluble
MGSDKIHHHHHHMQPPLTDKQFKHTIDYDSRLLPYKYYHTCVMDGIPDILFHWHNEFEINYVYGGTARYHIDYDYFNSQAGDIILIRPNAAHSIHPIEQRGHETDTLLFHLDMLGASQLDHTSMLYLQPLQTDVFKCILRIQPQDPGYAEIRQCLLTIFELVRHQPPYFELPLKSRLFDFFYLLYRYRYIVRKNTDDMYRKNEKLRLLIEHIQQHYAENLTIEQLAEQMGYTKTHFMTIFKQQTGTSCMEFIIQVRLRAATELLTNTLKPVLEIATEVGFNNLSNFNRQFKQYYHTTPSSYRKQLRKNRTYTNFDK	not soluble
MEKPSPTRRQTSSLSTISNGMTMTNDNRDTTNTNSGSTSSNNSQPSSSSTPPAASGPVTDRTKVNYVPKSDDPSSFQYYPDDPENPVNKYKFALKADSQYYDPCEESSKLSFQCLERNDYDRSKCQEYFDAYRECKKQWLTARRKNRQQWE	soluble
MYSKIIERELETLKTIFQEASRANTHYEFISVVGKAVSEFLGSEGYRIEWDGRGSAKGNEVVLEIRINTYAKVNLYFPLKKGRKLSKVEEEFLKFVKEVSERIAEKITSYTIYKTLLDSYPFVAYLVEAEPPYPQKILYVTPSLEKWLGWKPEEISKDW	not soluble
MKRAVITGLGIVSSIGNNQQEVLASLQEGRSGITFAQEFKDAGMRSHVWGDVKLQSEPKDLIDRKVLRFMSDASIYAYLAMQEAIADSGLSDSQVSNFRSGLVVGSGGGSPRNQVAGSDAMRTPRGLKGVGPYMVTKAMASGVSACLATPFKIKGVNYSISSACATSAHCIGHALELIQLGKQDIVFAGGGEELCWEMACEFDAMGALSTKYNDTPAKASRTYDQDRDGFVIAGGGGMVVVEELEHALARGAHIYAEIVGYGATSDGADMVAPSGEGAVRCMQMAMAGVDTPIDYMNVHGTSTPVGDVKELGAIREVFGNNTPAISSTKAMTGHSLGAAGVHEAIFSLLMVEHGFIAPSINIDNLDEQAQGMNIITETTQRELTTVMSNSFGFGGTNATLVMRKYQK	not soluble
MTEKQFKLTVQDNTNIEVKVNFTDVDSKGIIHIFHGMAEHMERYDKLAHALSKHGFDVIRHNHRGHGINIDESTRGHYDDMKRVIGDAFEVAQTVRGNVDKPYIIIGHSMGSVIARLFVETYPQYVDGLILSGTGMYSLWKGLPTVKVLQLITKIYGAEKRVEWVNQLVSNSFNKKIRPLRTQSDWISSNPIEVDNFIKDPYSGFNVSNQLLYQTAYYMLHTSQLKNMKMLNHAMPILLVSGYDDPLGDYGKGILKLANIYRKAGIKNVKVNLYHHKRHEVLFEKDHDKIWEDLFKWLNQFYKK	not soluble
AHHHHHHGSGRFVVWPSELDSRLSRKYGRIVPRSIAVESPRVEEIVRAAEELKFKVIRVEEDKLNPRLSGIDEELRTFGMIVLESPYGKSKSLKLIAQKIREFRRRSA	not soluble
MGSDKIHHHHHHMTLLLKENDVINLLDYKQIYGALVNAFLLFENKFAINLERSRISFHGTTLTFQAAGMENYIGYKTFISGNHLTFLYDTSGNLLSIIESDRLSQARTAVLSILATDYVYGDFSSLGVIGLGKYGLAIVEIANQLKKGIKINVFTPSQQRMEKALSILRGEGIDVSPKDSIKRVCEESEVVTTITKAKDPFLKLEYVNNKRIHINAMGSNIPEKIEIFPEVIKASNLIVVEELEHEFKRIRRVSHRKRMGMLDMSKITLLSWILSRKINVQKEGITIFKSVGIGLEDLAVGKLIYEKALSKGLGTEIEVKGVWYRESEKK	not soluble
IGPVQYHIGGTITYTTNKLIDLGATSVLKSGFVGKQQGYPLNSYFGLRYVGKIQTQEELEKYKYYYLDGNGIGMQDNLRLGDHMFEDVNGDGKLDQNDYVYLGTDDPKLSYSINIGLEWKGFDLSAIFQGVGRRTVFRGGEGNETWRVPMSAIYLNTTTQSIGNTWNPENRNAYYPSYTSIGSINNYNYQCSSWSVENGAYLRLKNLTLGYTLPASWLAKTNAISKLRIYFTGADLWEHSKLRDGWDPEASRKTKDLGRYPFNRTFTVGVNATF	not soluble
MVMVLDSLGRALSNALKKIARAGSVDEALVKEVVRDIQRALLQADVNVRLVLKLTKEIQRRALEEKPPAGISKKEHIIKIVYEELTKFLGTEAKPIEIKEKPTVLLTVGVQGSGKTTTVAKLARYFQKRGYKVGVVCSDTWRPGAYHQLKQLLDPYHIEVFGDPNEKDAVKLAKEGVEYFKTRDVDLIIVDTAGRHKEEKDLIEEMRMISEEIRPHEVILVIDGTIGQQAYNQALAFKEATPIGSIIVTKLDSSAKGGGALSAVAATGAPIKFIGVGEKIDDLEPFDPARFVSRLLGLGDIQGLLEKFKELEKEVEFTEEDIDRFLRGKFTLKDMYAQLEAMRKMGPLKQILRMIPGLGYSLPDELISVGEERLRKFKVIMDSMTEEELMNPEIINYSRIKRIARGSGTSIKDVKELLTQYNQMKKFFKSMNKRQLSRLARRFGM	soluble
MNYKSCFDIIGPIMIGPSSSHTAGALAIGLAARKLFGGTPEKIVIKYYESFADTHKGHGTDFAIIGGILGLAADDANVTQSIELAEEQGIEIQFLEMSEESPVKHANTACVTLSDATHEIHLTGISVGGGTIEVKYIELDGFNVQLHGPLPILLVINQEEQAMQAFKDTLQKNNIQVNAVSRYVEGNQILFIFDLDSAPISSVKEQLFSLDDTSKIILL	not soluble
MNLTPGGNAPVPAQELRVRITSGGQVDASAFRLYADGKVQGDADMVFYGQPRNDDGTVSLVSEGQYSTFTVALNRLKPDVQKIAFTVTCDGGQTVSGLRNLSIDVEQGATGLVSGSVELSGRQEAALILGEFYRRNNDWKFRFVAQGFNGGLKPLAEHFGVNIADEPAPAAPTPPVVTPPPVETKISLSKVSLTKEKPAISLTKRDNFGEIRINLNWHRGSSKSGFAGMFGSKGIDLDLGAFVELQDGYKSVIQALGNAFGDYRDEPYVQLKGDDRTGDVSDGEWLHINGREWKHIREVLIYAFIYEGVPSWDKTDGVVTIHVPDQPPIETRLTEGENRRTLCAIARLVNENGAIKVERINQYFKGQDEMDRAFGWGFRWSAGSK	not soluble
MVESGKAQMESFRIDNNGIQKKSRTKFIAGVGKSLRSAKNLTSKTVQTQFVAYPELAQLLPIFPAERLKKLILNGLDGQEYKQLIDLDQWKQARIFHGYAENLIIPIEKFFHFERFDVHLARFTEADALRLRAMIDRSAHFGFAGICCNYMNNSALKRIFNVEHENFYQTPDERSFDVQCRPGEISITKFGYTVE	not soluble
TMNPLYSLKRSEERRNVVLSRMLDEKYISKEEYDAALKEPIVASYHGAKFEFRADYVTEMVRQEMVRRFGEENAYTSGY	not soluble
